Laboratory results published in US20080181887A1.

Molecular target: human FcRn (human)
Test: BIAcore SPR, soluble IgG over immobilized human FcRn, pH 6.0; reference purified cynomolgus monkey IgG

human FcRn (human), sequence (chain, as listed by the source limits assumed, chain 1 of 2): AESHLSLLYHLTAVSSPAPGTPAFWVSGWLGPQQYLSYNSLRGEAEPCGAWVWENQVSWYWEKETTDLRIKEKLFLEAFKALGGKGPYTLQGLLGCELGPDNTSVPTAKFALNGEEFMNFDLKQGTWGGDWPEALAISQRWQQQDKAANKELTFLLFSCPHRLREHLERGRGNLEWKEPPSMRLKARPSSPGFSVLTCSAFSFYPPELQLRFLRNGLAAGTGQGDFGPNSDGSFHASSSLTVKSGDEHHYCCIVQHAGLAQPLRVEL
human FcRn (human), sequence (P61769 21-119 limits assumed, chain 2 of 2): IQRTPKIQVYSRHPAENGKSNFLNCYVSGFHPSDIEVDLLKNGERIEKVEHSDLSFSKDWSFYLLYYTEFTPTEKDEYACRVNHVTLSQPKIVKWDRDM

“humanized anti-RSV monoclonal antibody MEDI-524 (from UniProt P01857 1-330)” gave a ratio of the human over cynomolgus IgG concentrations at Req50% of 0.9.
